Reference: article PMC12186880

Molecular target: adenine base editing engineered ribonucleoprotein (BE-eRNP): bipartite NLS-TadA(8.20-m)-linker-nCas9(D10A, C80A)-bipartite NLS protein complexed with sgRNA (Escherichia coli | Streptococcus pyogenes)
Assay: native gel or EMSA

Substance: adenine base editing engineered ribonucleoprotein (BE-eRNP): bipartite NLS-TadA(8.20-m)-linker-nCas9(D10A, C80A)-bipartite NLS protein complexed with sgRNA (enzyme)
- stoichiometry N: 2
